In the supplement of paper PMC12764529:
± gives the half width of the 95% confidence interval.

What was measured:
[1] = folding stability dG unfold from trypsin proteolysis; higher = more stable
Method in brief: (§1)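 Digests were run with trypsin and chymotrypsin at 11 concentrations in threefold dilutions, plus a no-protease condition, on designed mini-proteins in a PA-tagged cDNA display construct. The mini-proteins were under 80 residues, had no cysteine, and were kept only when AlphaFold2 dimer inter-PAE was above 15. After sequencing, Bayesian fitting of the counts gave K50, from which unfolding free energy was derived against a sequence-predicted unfolded-state K50 and a shared folded-state K50, per protease or combined.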

[2] = folding stability dG unfold (combined trypsin and chymotrypsin); higher = more stable
Method in brief: as §1

[3] = folding stability dG unfold from chymotrypsin proteolysis; higher = more stable
Method in brief: as §1

## SAGGMLTLIDPETGEPFLTTPIATFTVPVTLTGPDGKPLETRTLRITLFRAYRPDGSPALILLVSPESAGGS [r8_214_TrMRF]
[1]
  folding stability dG unfold: 3.7 ± 0.083 kcal/mol
[2]
  folding stability dG unfold: 4.3 ± 0.052 kcal/mol
[3]
  folding stability dG unfold: 4.73 ± 0.061 kcal/mol

## SAGGMLTLPATVEGDELTLTLPTGATKTVSPNTTVKLPDGTVVSLTPVSPSSVSATVTPLPADATRPSAGGS [r16_277_JUSTAS]
[1]
  folding stability dG unfold: 0.208 ± 0.029 kcal/mol
[2]
  folding stability dG unfold: 1.21 ± 0.07 kcal/mol
[3]
  folding stability dG unfold: 1.601 ± 0.01 kcal/mol

## SAGGMLTLTDPETGVPYTGTPVSTTTTTVVLTTPDGTPVETVTVTVTTYEFTAPDGTPVTLTETTGLSAGGS [r8_214_JUSTAS]
[1]
  folding stability dG unfold: 1.75 ± 0.071 kcal/mol
[2]
  folding stability dG unfold: 2.08 ± 0.052 kcal/mol
[3]
  folding stability dG unfold: 2.27 ± 0.025 kcal/mol

## SAGGMLTYTTEYDPRGVLTVREYDPSTSKPISTHIIELGPEPVPPPVPGFPQVTPSGELRLVEDPAGPSAGG [r13_9_JUSTAS]
[1]
  folding stability dG unfold: -0.178 ± 0.12 kcal/mol
[2]
  folding stability dG unfold: -0.0536 ± 0.15 kcal/mol
[3]
  folding stability dG unfold: -0.0943 ± 0.33 kcal/mol

## SAGGMLVEARPVLRLTLVSPDGTPREFELPFTVPFSPENPEALLEEAEAIARAIAEATGAEAEIEIEPSAGG [r13_853_TrMRF]
[1]
  folding stability dG unfold: 0.506 ± 0.064 kcal/mol
[2]
  folding stability dG unfold: 0.319 ± 0.15 kcal/mol
[3]
  folding stability dG unfold: 0.017 ± 0.23 kcal/mol

## SAGGMMEIEVEIEKLEDGTYRIRIRVRLPNGEEVEKEMTFDRETGTLTITFDRPIEPDQIVEIEIEPSAGGS [r16_95_TrROS_Hall]
[1]
  folding stability dG unfold: 3.94 ± 0.16 kcal/mol
[2]
  folding stability dG unfold: 4.27 ± 0.19 kcal/mol
[3]
  folding stability dG unfold: 4.41 ± 0.2 kcal/mol

## SAGGMMKLNPKTLETKTTTVPLPDGSTVTLTTKLVELKFPNGEVELVTLTVETFPSEPTLTVLEEKPLSAGG [r19_158_JUSTAS]
[1]
  folding stability dG unfold: -0.0226 ± 0.083 kcal/mol
[2]
  folding stability dG unfold: 0.341 ± 0.11 kcal/mol
[3]
  folding stability dG unfold: 0.45 ± 0.1 kcal/mol

## SAGGMMTIEELKKLPPGAKVGDKIKIRNPATGETFTVTVLPDGRIKIEVDGKIYELPPGAEIVEIEKSAGGS [r8_162_TrROS_Hall]
[1]
  folding stability dG unfold: 1.93 ± 0.086 kcal/mol
[2]
  folding stability dG unfold: 2.17 ± 0.13 kcal/mol
[3]
  folding stability dG unfold: 2.36 ± 0.076 kcal/mol

## SAGGMMTPVSEETLPDGSKVLVEENPATGERTVTTLNPATGTVTTETLKRVPGENAWTLLSKTTTPAPSAGG [r19_249_JUSTAS]
[1]
  folding stability dG unfold: 2.033 ± 0.018 kcal/mol
[2]
  folding stability dG unfold: 1.94 ± 0.041 kcal/mol
[3]
  folding stability dG unfold: 1.83 ± 0.02 kcal/mol

## SAGGMMYLKLKVKNKNGEEIEVLIEFDEKTGKAYIYNKKTGKKIEMTLEELLKQENIEIEEIEPLPEPSAGG [r13_994_TrROS_Hall]
[1]
  folding stability dG unfold: 2.89 ± 0.12 kcal/mol
[2]
  folding stability dG unfold: 4.07 ± 0.13 kcal/mol
[3]
  folding stability dG unfold: 4.29 ± 0.12 kcal/mol

## SAGGMNISIEPIGRDNDRWYYMITFPGDANEIKDFIEEFLPPGLPIKVKVLEVDPENGHVTVMIEIPRSAGG [r13_491_TrROS]
[1]
  folding stability dG unfold: 2.21 ± 0.042 kcal/mol
[2]
  folding stability dG unfold: 3.24 ± 0.058 kcal/mol
[3]
  folding stability dG unfold: 3.58 ± 0.043 kcal/mol

## SAGGMPAKAVTTKLPDGTDRITVTTVGSGKSATIPVPAGELKVIEIEEGEETLSVSFVEVGPDNPELGSAGG [r13_122_TrMRF]
[1]
  folding stability dG unfold: -0.426 ± 0.044 kcal/mol
[2]
  folding stability dG unfold: 0.104 ± 0.056 kcal/mol
[3]
  folding stability dG unfold: 0.374 ± 0.014 kcal/mol

## SAGGMPEGMVVLRIRVRVEKVEVRRDPAVPGRVSRRVEVREVEIELVVDSREALEALRELGFEIEEVSAGGS [r8_482_TrROS_Hall]
[1]
  folding stability dG unfold: 3.79 ± 0.099 kcal/mol
[2]
  folding stability dG unfold: 4.22 ± 0.08 kcal/mol
[3]
  folding stability dG unfold: 4.43 ± 0.11 kcal/mol

## SAGGMPEKVVVLRIRVTIRRDGEEEEIELEIRLPEEGQELTEEQLLALLRELLPPGYEIRRVEIEELSAGGS [r16_407_TrROS_Hall]
[1]
  folding stability dG unfold: 4.63 ± 0.077 kcal/mol
[2]
  folding stability dG unfold: 4.73 ± 0.048 kcal/mol
[3]
  folding stability dG unfold: 4.755 ± 0.043 kcal/mol

## SAGGMPEPRPIPLTLTLLVDPEDPESVEEKLREFFEAFGADEITRVERELLPDGRALVTAEVLVNEPVSAGG [r13_222_TrMRF]
[1]
  folding stability dG unfold: 1.03 ± 0.03 kcal/mol
[2]
  folding stability dG unfold: 1.15 ± 0.061 kcal/mol
[3]
  folding stability dG unfold: 1.17 ± 0.043 kcal/mol

## SAGGMPEVKIKVEITEIKVDKETGKTVTIRIKSVEITTADGRKYRVEKEIRIRPDGSIEVKVKVEELPSAGG [r13_917_TrROS_Hall]
[1]
  folding stability dG unfold: 2.75 ± 0.089 kcal/mol
[2]
  folding stability dG unfold: 3.75 ± 0.12 kcal/mol
[3]
  folding stability dG unfold: 4.21 ± 0.14 kcal/mol

## SAGGMPIKSKKEAEEFIKKGGAKYLSKTKVKVKGEEKEKEFEVYEFVFKDPKTNKPILVVVPKEYIGSAGGS [r16_271_TrMRF]
[1]
  folding stability dG unfold: -0.0462 ± 0.2 kcal/mol
[2]
  folding stability dG unfold: 0.886 ± 0.23 kcal/mol
[3]
  folding stability dG unfold: 1.27 ± 0.15 kcal/mol

## SAGGMPKIVEIEILSEEYDPSTGVRTYTAKVTYPDGTEEVVTIPVDLTDGNATEEEVKKRVEELVLESAGGS [r16_221_JUSTAS]
[1]
  folding stability dG unfold: 3.95 ± 0.22 kcal/mol
[2]
  folding stability dG unfold: 3.76 ± 0.13 kcal/mol
[3]
  folding stability dG unfold: 3.66 ± 0.11 kcal/mol
